According to patent US20190137501:

Molecular target: epidermal growth factor receptor (EGFR)

B1: protein-tyrosine phosphatase 1b (PTP1b) (protein)
chain: MEMEKEFEQIDKSGSWAAIYQDIRHEASDFPCRVAKLPKNKNRNRYRDVSPFDHSRIKLHQEDNDYINASLIKMEEAQRSYILTQGPLPNTCGHFWEMVWEQKSRGVVMLNRVMEKGSLKCAQYWPQKEEKEMIFEDTNLKLTLISEDIKSYYTVRQLELENLTTQETREILHFHYTTWPDFGVPESPASFLNFLFKVRESGSLSPEHGPVVVHCSAGIGRSGTFCLADTCLLLMDKRKDPSSVDIKKVLLEMRKFRMGLIQTADQLRFSYLAVIEGAKFIMGDSSVQDQWKELSHEDLEPPPEHIPPPPRPPKRILEPHNGKCREFFPNHQWVKEETQEDKDCPIKEEKGSPLNAAPYGIESMSQDTEVRSRVVGGSLRGAQAASPAKGEPSLPEKDEDHALSYWKPFLVNMCVATVLTAGAYLCYRFLFNSNT
EGFR Y1173 phosphorylation (semi-quantitative Western blot): inhibition of PTP1b increased EGFR Y1173 phosphorylation in GFP control cells treated with 0.25 nM EGF
